Measured values: paper PMC3334620

Key:
Conditions in all cases: 200 nM
[1] = target: T1, Msn1 (Saccharomyces cerevisiae) (UniProt P22148)
T1 sequence: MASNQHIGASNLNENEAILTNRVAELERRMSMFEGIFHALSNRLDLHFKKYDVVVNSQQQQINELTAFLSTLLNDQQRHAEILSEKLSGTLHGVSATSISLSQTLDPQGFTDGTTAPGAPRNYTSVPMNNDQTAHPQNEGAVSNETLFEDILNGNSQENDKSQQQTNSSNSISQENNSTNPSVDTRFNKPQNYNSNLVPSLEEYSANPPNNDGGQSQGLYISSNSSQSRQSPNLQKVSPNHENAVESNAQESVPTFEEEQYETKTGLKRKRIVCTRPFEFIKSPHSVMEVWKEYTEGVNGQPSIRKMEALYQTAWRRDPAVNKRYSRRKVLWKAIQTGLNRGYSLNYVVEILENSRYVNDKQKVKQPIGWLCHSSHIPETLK

[2] = target: T2, Mot3 (Saccharomyces cerevisiae) (UniProt P54785)
T2 sequence: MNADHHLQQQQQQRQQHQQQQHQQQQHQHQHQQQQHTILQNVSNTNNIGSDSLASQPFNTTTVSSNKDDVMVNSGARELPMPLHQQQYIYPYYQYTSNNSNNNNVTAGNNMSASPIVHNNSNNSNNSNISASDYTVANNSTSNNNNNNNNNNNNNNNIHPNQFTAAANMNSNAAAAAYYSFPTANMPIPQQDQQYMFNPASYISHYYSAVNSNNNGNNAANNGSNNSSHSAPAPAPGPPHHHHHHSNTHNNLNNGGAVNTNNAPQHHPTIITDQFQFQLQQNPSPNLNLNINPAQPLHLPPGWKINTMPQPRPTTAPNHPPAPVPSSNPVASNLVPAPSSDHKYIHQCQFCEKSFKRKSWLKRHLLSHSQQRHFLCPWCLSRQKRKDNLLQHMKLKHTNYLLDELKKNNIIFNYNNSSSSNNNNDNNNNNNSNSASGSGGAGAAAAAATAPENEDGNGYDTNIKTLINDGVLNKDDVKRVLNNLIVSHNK

[3] = target: T3, Pdr3 (Saccharomyces cerevisiae) (UniProt P33200)
T3 sequence: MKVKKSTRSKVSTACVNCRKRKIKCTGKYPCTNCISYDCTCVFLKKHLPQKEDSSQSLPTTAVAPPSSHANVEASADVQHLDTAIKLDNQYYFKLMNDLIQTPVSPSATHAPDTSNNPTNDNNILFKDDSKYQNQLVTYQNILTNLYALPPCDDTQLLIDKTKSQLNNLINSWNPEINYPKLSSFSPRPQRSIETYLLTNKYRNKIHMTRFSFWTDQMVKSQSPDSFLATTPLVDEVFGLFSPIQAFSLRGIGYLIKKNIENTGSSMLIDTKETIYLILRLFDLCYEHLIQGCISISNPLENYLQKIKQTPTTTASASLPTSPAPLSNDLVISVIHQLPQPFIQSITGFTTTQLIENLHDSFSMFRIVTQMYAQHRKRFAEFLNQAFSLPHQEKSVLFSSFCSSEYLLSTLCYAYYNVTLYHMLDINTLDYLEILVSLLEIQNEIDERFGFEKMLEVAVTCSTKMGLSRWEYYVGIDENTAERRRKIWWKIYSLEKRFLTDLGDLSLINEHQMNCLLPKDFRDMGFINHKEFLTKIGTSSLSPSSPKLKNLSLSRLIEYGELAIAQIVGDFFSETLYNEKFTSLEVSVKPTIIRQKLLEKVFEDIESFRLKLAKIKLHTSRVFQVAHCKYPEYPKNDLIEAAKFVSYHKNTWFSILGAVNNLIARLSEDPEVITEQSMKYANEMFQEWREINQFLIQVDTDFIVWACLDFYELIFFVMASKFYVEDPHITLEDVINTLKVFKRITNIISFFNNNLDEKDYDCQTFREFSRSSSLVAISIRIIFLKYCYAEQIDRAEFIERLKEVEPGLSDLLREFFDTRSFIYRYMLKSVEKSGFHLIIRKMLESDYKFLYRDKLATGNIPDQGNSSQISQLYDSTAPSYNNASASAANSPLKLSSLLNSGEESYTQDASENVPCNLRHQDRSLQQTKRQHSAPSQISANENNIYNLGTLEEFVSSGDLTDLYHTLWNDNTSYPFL

[4] = target: T4, Sko1 (Saccharomyces cerevisiae) (UniProt Q02100)
T4 sequence: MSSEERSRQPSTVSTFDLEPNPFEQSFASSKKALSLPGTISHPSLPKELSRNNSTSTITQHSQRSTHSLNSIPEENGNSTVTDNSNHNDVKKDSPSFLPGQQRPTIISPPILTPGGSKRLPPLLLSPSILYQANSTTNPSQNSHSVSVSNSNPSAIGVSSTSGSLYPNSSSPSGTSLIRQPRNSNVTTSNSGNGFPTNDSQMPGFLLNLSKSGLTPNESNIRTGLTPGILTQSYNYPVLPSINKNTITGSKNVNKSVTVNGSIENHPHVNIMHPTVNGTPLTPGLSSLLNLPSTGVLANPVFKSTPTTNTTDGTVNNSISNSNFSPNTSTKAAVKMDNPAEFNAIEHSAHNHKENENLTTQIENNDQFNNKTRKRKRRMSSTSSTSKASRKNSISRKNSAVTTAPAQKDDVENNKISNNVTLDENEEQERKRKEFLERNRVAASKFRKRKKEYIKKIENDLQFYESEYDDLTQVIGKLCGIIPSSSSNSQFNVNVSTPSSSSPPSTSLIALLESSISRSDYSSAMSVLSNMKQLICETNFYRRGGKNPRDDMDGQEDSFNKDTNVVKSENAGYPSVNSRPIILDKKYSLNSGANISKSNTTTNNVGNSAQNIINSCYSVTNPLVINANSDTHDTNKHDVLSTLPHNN

AAAATGTC (double strand) [8-mer AAAATGTC]
binding signal (PBM E-score (-0.5 to 0.5)) [1]: 0.491

AAAGGCAC (double strand) [8-mer AAAGGCAC]
binding signal (PBM E-score (-0.5 to 0.5)) [2]: 0.495

AAATGTCC (double strand) [8-mer AAATGTCC]
binding signal (PBM E-score (-0.5 to 0.5)) [1]: 0.498

AACGGAAC (double strand) [8-mer AACGGAAC]
binding signal (PBM E-score (-0.5 to 0.5)) [3]: 0.49

AAGGCACC (double strand) [8-mer AAGGCACC]
binding signal (PBM E-score (-0.5 to 0.5)) [2]: 0.493

AAGGCACG (double strand) [8-mer AAGGCACG]
binding signal (PBM E-score (-0.5 to 0.5)) [2]: 0.496

AATGACGT (double strand) [8-mer AATGACGT]
binding signal (PBM E-score (-0.5 to 0.5)) [4]: 0.498

AATGTCCA (double strand) [8-mer AATGTCCA]
binding signal (PBM E-score (-0.5 to 0.5)) [1]: 0.493

AATGTCCC (double strand) [8-mer AATGTCCC]
binding signal (PBM E-score (-0.5 to 0.5)) [1]: 0.496

AATGTCCT (double strand) [8-mer AATGTCCT]
binding signal (PBM E-score (-0.5 to 0.5)) [1]: 0.496

ACAGGCAC (double strand) [8-mer ACAGGCAC]
binding signal (PBM E-score (-0.5 to 0.5)) [2]: 0.495

ACCCGCGG (double strand) [8-mer ACCCGCGG]
binding signal (PBM E-score (-0.5 to 0.5)) [3]: 0.497

ACGTCATA (double strand) [8-mer ACGTCATA]
binding signal (PBM E-score (-0.5 to 0.5)) [4]: 0.498

ACGTCATC (double strand) [8-mer ACGTCATC]
binding signal (PBM E-score (-0.5 to 0.5)) [4]: 0.498

ACGTCATG (double strand) [8-mer ACGTCATG]
binding signal (PBM E-score (-0.5 to 0.5)) [4]: 0.497

ACGTGCCT (double strand) [8-mer ACGTGCCT]
binding signal (PBM E-score (-0.5 to 0.5)) [2]: 0.494

AGGACAAA (double strand) [8-mer AGGACAAA]
binding signal (PBM E-score (-0.5 to 0.5)) [1]: 0.498

AGGACATA (double strand) [8-mer AGGACATA]
binding signal (PBM E-score (-0.5 to 0.5)) [1]: 0.494

AGGCACGC (double strand) [8-mer AGGCACGC]
binding signal (PBM E-score (-0.5 to 0.5)) [2]: 0.496

ATACGTCA (double strand) [8-mer ATACGTCA]
binding signal (PBM E-score (-0.5 to 0.5)) [4]: 0.494

ATATGTCC (double strand) [8-mer ATATGTCC]
binding signal (PBM E-score (-0.5 to 0.5)) [1]: 0.496

ATCCGCGG (double strand) [8-mer ATCCGCGG]
binding signal (PBM E-score (-0.5 to 0.5)) [3]: 0.496

ATGACGTA (double strand) [8-mer ATGACGTA]
binding signal (PBM E-score (-0.5 to 0.5)) [4]: 0.5

ATGACGTC (double strand) [8-mer ATGACGTC]
binding signal (PBM E-score (-0.5 to 0.5)) [4]: 0.497

ATGACGTG (double strand) [8-mer ATGACGTG]
binding signal (PBM E-score (-0.5 to 0.5)) [4]: 0.496

ATGTCCTA (double strand) [8-mer ATGTCCTA]
binding signal (PBM E-score (-0.5 to 0.5)) [1]: 0.497

ATTTGTCC (double strand) [8-mer ATTTGTCC]
binding signal (PBM E-score (-0.5 to 0.5)) [1]: 0.498

CAGGCACA (double strand) [8-mer CAGGCACA]
binding signal (PBM E-score (-0.5 to 0.5)) [2]: 0.493

CAGGCACC (double strand) [8-mer CAGGCACC]
binding signal (PBM E-score (-0.5 to 0.5)) [2]: 0.496

CAGGCACG (double strand) [8-mer CAGGCACG]
binding signal (PBM E-score (-0.5 to 0.5)) [2]: 0.496

CCCCGCGG (double strand) [8-mer CCCCGCGG]
binding signal (PBM E-score (-0.5 to 0.5)) [3]: 0.492

CCCGCGGA (double strand) [8-mer CCCGCGGA]
binding signal (PBM E-score (-0.5 to 0.5)) [3]: 0.498

CCCGCGGG (double strand) [8-mer CCCGCGGG]
binding signal (PBM E-score (-0.5 to 0.5)) [3]: 0.498

CCGCGGAA (double strand) [8-mer CCGCGGAA]
binding signal (PBM E-score (-0.5 to 0.5)) [3]: 0.499

CCGCGGAC (double strand) [8-mer CCGCGGAC]
binding signal (PBM E-score (-0.5 to 0.5)) [3]: 0.495

CCGCGGAG (double strand) [8-mer CCGCGGAG]
binding signal (PBM E-score (-0.5 to 0.5)) [3]: 0.498

CCGCGGCA (double strand) [8-mer CCGCGGCA]
binding signal (PBM E-score (-0.5 to 0.5)) [3]: 0.49

CCGCGGGA (double strand) [8-mer CCGCGGGA]
binding signal (PBM E-score (-0.5 to 0.5)) [3]: 0.499

CGCGGAAC (double strand) [8-mer CGCGGAAC]
binding signal (PBM E-score (-0.5 to 0.5)) [3]: 0.491

CGTGCCTA (double strand) [8-mer CGTGCCTA]
binding signal (PBM E-score (-0.5 to 0.5)) [2]: 0.495

CTACGTCA (double strand) [8-mer CTACGTCA]
binding signal (PBM E-score (-0.5 to 0.5)) [4]: 0.493

GAAGGCAC (double strand) [8-mer GAAGGCAC]
binding signal (PBM E-score (-0.5 to 0.5)) [2]: 0.495

GAATGTCC (double strand) [8-mer GAATGTCC]
binding signal (PBM E-score (-0.5 to 0.5)) [1]: 0.494

GCAGGCAA (double strand) [8-mer GCAGGCAA]
binding signal (PBM E-score (-0.5 to 0.5)) [2]: 0.493

GCAGGCAC (double strand) [8-mer GCAGGCAC]
binding signal (PBM E-score (-0.5 to 0.5)) [2]: 0.497

GCCGCGGA (double strand) [8-mer GCCGCGGA]
binding signal (PBM E-score (-0.5 to 0.5)) [3]: 0.495

GGACAAAA (double strand) [8-mer GGACAAAA]
binding signal (PBM E-score (-0.5 to 0.5)) [1]: 0.494

GGACAAAC (double strand) [8-mer GGACAAAC]
binding signal (PBM E-score (-0.5 to 0.5)) [1]: 0.491

GGGACAAA (double strand) [8-mer GGGACAAA]
binding signal (PBM E-score (-0.5 to 0.5)) [1]: 0.496

GTAGGCAC (double strand) [8-mer GTAGGCAC]
binding signal (PBM E-score (-0.5 to 0.5)) [2]: 0.495

GTGACGTA (double strand) [8-mer GTGACGTA]
binding signal (PBM E-score (-0.5 to 0.5)) [4]: 0.494

GTGCCTGA (double strand) [8-mer GTGCCTGA]
binding signal (PBM E-score (-0.5 to 0.5)) [2]: 0.493

TGACGTCA (double strand) [8-mer TGACGTCA]
binding signal (PBM E-score (-0.5 to 0.5)) [4]: 0.499

TGGACAAA (double strand) [8-mer TGGACAAA]
binding signal (PBM E-score (-0.5 to 0.5)) [1]: 0.493
